The target of one assay is Bcl-2 (UniProt P10415). Briefly: anti-Flag co-IP, Bcl-2 blot. The settings on record: reference: wild-type MLKL with RIP3; sites T357,S358.
Assay [1] deals with Flag-MLKL T357D/S358E phosphorylation mimic (human) (UniProt Q8NB16). Briefly: immunoblot of oligomers in cytosol and membrane fractions; HEK-293T cells transfected with Flag-MLKL constructs, with or without RIP3, Bcl-2 or Bcl-2 G145A; Triton X-114 detergent phase separation; oligomers seen by immunoblot (gel conditions not told).
Chain of Flag-MLKL T357D/S358E phosphorylation mimic (human) (Q8NB16 whole entry T357D/S358E): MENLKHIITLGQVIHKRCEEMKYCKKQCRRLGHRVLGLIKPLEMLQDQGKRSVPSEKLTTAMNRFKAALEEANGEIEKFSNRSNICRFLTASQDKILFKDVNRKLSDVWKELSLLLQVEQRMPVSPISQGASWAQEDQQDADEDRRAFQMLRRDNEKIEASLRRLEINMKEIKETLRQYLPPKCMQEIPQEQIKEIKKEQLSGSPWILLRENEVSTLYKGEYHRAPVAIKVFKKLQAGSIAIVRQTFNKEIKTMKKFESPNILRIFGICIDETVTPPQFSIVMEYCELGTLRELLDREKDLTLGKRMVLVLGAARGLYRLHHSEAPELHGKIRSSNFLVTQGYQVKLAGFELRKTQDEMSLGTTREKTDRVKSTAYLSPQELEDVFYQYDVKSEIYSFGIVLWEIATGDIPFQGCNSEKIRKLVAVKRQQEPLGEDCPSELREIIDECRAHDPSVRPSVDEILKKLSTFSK

Chain of Bcl-2 (transfected, HEK-293T) (P10415 whole entry): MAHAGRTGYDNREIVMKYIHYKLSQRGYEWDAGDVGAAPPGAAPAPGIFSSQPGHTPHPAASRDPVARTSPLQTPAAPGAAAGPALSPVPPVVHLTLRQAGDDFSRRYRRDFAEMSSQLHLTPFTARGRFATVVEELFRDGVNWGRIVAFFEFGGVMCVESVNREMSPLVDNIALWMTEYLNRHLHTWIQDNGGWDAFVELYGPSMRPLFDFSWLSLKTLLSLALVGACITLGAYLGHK

Consider “MLKL (from UniProt Q8NB16) T357A/S358A with RIP3”, for which the “binding against the reference” value with Bcl-2 is on record as “weaker”.
Substance “Bcl-2 (transfected, HEK-293T) (from UniProt P10415 1-239)” yielded a percent decrease of MLKL oligomerization in assay [1] of 30%.

These data come from PMC6901440.
